# According to patent publication US8173596B2, “Prouroguanylin, and synthetic analogs or proteolytic cleavage products derived from it, as therapeutic and diagnostic agents for diseases involving salt and/or fluid homeostasis” (The University of North Carolina at Chapel Hill, priority 2004, dated 2012):
# “Also recorded” adds a separate entry of the source.
# B1: prouroguanylin (protein, listed as Rattus norvegicus)
# chain: VYIKYHGFQVQLESVKKLNELEEKQMSDPQQQKSGLLPDVCYNPALPLDLQPVCASQEAASTFKALRTIATDECELCINVACTGC
# notes: propeptide of UGn18
# B2: ^35S-proUGn: proUGn prepared by coupled in vitro transcription/translation in the presence of 35S-Cys and 35S-Met (protein)
# chain: VYIKYHGFQVQLESVKKLNELEEKQMSDPQQQKSGLLPDVCYNPALPLDLQPVCASQEAASTFKALRTIATDECELCINVACTGC
# B3: proguanylin (protein, listed as Rattus norvegicus)
# chain: MNAWLLSVLCLLGALAVLVEGVTVQDGDLSFPLESVKQLKHLREVQEPTLMSHKKFALRLPKPVAPELCSQSAFPEALRPLCEKPNAEEILQRLEAIAQDPNTCEICAYAACTGC
# notes: propeptide of Gn15
# Legend:
# GC-C = molecular target: T1, GC-C (Homo sapiens, UniProt P25092); conditions: other reports (Hamra et al. 1996); cited from earlier work
# T1 construct: endogenous in cells; host or cells: T84 cells
# anesthetized rats = assay: Diuresis and natriuresis induced by infused native proUGn in anesthetized rats; format: in vivo, rat
# Experimental: (§1) Experiments were performed with 200-250 g male Sprague Dawley rats (Charles River Laboratories, Wilmington, Mass., United States of America). Rat test diets were obtained from a commercial supplier (Harlan Teklad, Madison, Wis., United States of America). For some experiments, anephric animals were prepared by surgical acute ligation of the renal pedicles. As necessary, animals were anesthetized with Nembutal (60 mg/kg body weight ip).
# Na, K, and fluid excretion: Na and K concentrations are analyzed on an IF model 943 flame photometer (Instrumentation Laboratory Company, Lexington, Mass., United States of America). Urine is collected from ureteric canulae or by the use of metabolic cages. Urine volume is determined gravimetrically.
# Native proUGn is purified from rat small intestine. Animals are sacrificed by anesthetic overdose, and approximately 20 cm of proximal small intestine is removed. The tissue is cut longitudinally, rinsed with saline, and the mucosal layer is isolated by scraping with a microscope slide. Scraped material is snap-frozen on a metal plate chilled to −78.5° C., then homogenized in 50 mM HEPES, pH 7.4, containing protease inhibitor. The homogenate is cleared by centrifugation at 50,000×g, and the supernate is fractionated sequentially by HPLC on a MonoQ anion exchange column and a VYDAC C-18 reverse-phase column. The HPLC chromatogram of this second chromatography step is shown in FIG. 10a, with a Western blot of the individual HPLC fractions shown in the inset, confirming the presence of proUGn. The purified material was dried to remove the HPLC solvents and resuspended in physiological saline. Recovery is measured by quantitative proUGn immunoassay.
# Native proUGn is infused for 60 min into a group of 5 anesthetized rats, the standard infusion containing approximately 180-pmol peptide. Given an estimated rat plasma volume of 10 mL, the infusion rate was approximately […]. Blood pressure, urine production, and sodium excretion were monitored for approximately 40 minutes prior to the infusion, during the infusion, and for approximately 50 minutes after the infusion to measure the effect of the proUGn on diuresis and natriuresis. For comparison, a control group of five rats was infused with regular saline, one rat was infused with a solution of proUGn that had been neutralized by incubation with antibodies 6910 and 6912, and one rat was infused with a solution containing STa at 5 μg/kg/hr.
# [1] = Kidney clearance and tissue fate of infused or bolus-injected 35S-proUGn; format: in vivo, rat
# Experimental: as §1
# Radioactive proUGn was prepared by coupled in vitro transcription/translation in the presence of ^35S-Cys and ^35S-Met from a cDNA template that encoded full-length proUGn (minus the signal peptide).
# A solution containing radioactively-labeled r-proUGn was infused by iv into anesthetized rats for 60 min. The concentration of radioactivity in the plasma and the urine was measured via scintillation counting at timepoints throughout the infusion. […] At the end of the 60 min infusion, tissue samples were collected from the brain, thymus, lung, small intestine, skeletal muscle, spleen, heart, kidney, and liver and assayed for radioactivity by scintillation counting.
# To measure the rate of kidney clearance of proUGn, plasma levels of ^35S-proUGn were monitored following bolus injection of the radiolabelled propeptide. Bolus injections (about 10^6 cpm) were given to groups of control (i.e., normal) rats and to anephric rats. At various timepoints after the injection, blood samples were removed and fractionated by HPLC. Radioactivity in each HPLC fraction was measured in a scintillation counter. […] Taken together, the results from these experiments indicate that the kidney appears to be the major route of clearance for proUGn.
# [2] = HPLC analysis of proUGn metabolites in plasma and urine; format: in vivo, rat
# Experimental: Unless otherwise stated, HPLC conditions for the detection and identification of proUGn and related peptides are as follows: Vydac 218TP™ C-18 reverse-phase column (Grace Vydac, Hesperica, Calif., United States of America); equilibration of the column with H2O with 0.1% TFA for 25 minutes, followed by a 30 minutes gradient from 0% acetonitrile (with 0.1% TFA) to 50% acetonitrile (with 0.1% TFA), 5 min wash with 100% acetonitrile (0.1% TFA).
# Plasma samples were taken 2, 5, and 10 min after bolus injection of ^35S-proUGn (about 10^6 cpm) into the carotid artery (n=2 for each timepoint). Urine was collected for 30 min at the end of a 60 min arterial infusion of ^35S-proUGn (n=7). The cpm/μL in the infused material was approximately 100 times lower than the cpm/μL in the solution used for the bolus injection. Plasma and urine samples were applied to the HPLC column and eluted, with the radioactivity in each fraction measured in a scintillation counter.
# [3] = steady iv infusion over 60 min, FIG. 8a
# T1 sequence (P25092 24-1073): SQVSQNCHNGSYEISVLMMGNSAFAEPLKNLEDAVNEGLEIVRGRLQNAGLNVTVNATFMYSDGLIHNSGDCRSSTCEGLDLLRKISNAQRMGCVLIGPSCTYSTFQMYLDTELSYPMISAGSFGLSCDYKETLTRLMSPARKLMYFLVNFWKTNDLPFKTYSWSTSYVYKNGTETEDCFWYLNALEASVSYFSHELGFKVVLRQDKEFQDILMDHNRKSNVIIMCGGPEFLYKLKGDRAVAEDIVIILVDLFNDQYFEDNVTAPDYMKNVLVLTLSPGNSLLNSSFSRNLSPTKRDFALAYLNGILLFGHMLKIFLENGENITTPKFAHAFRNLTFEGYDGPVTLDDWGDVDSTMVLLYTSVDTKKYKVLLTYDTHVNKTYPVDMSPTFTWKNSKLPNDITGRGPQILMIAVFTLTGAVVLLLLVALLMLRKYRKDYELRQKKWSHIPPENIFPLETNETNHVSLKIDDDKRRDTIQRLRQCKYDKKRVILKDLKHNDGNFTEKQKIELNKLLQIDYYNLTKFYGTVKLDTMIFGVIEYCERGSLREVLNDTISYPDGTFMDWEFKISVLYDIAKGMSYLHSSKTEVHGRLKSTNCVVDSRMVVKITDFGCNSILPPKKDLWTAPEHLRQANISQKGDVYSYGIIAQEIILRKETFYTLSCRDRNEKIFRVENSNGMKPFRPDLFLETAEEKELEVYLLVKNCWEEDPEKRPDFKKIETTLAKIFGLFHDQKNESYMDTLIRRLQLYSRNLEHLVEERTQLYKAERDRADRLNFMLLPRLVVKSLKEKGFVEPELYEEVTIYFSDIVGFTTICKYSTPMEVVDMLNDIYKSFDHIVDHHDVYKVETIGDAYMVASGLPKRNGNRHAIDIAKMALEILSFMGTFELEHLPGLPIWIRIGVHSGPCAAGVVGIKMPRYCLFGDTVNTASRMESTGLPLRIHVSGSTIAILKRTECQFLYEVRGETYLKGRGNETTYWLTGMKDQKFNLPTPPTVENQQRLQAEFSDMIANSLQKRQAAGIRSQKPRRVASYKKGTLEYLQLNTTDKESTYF
Molecule,activation of GC-C (GC-C),"sodium excretion following proUGn infusion (anesthetized rats; 60 min infusion of approximately 180 pmol peptide, after infusion)","sodium excretion (anesthetized rats; 60 min infusion, FIG. 10c)","urine flow (anesthetized rats; 60 min infusion, anesthetized rats, FIG. 10b)",onset of the response to proUGn (anesthetized rats; after beginning infusion),duration of the response to proUGn (anesthetized rats; after terminating the infusion),sodium excretion before proUGn infusion (anesthetized rats; baseline of the infused animals),natriuretic response compared with responses reported in the literature for UGn18 (anesthetized rats; comparison with literature UGn18 infusion),increase in urine production (anesthetized rats; infusing exogenous proUGn into the bloodstream),"clearance from plasma, control versus anephric rats ([1]; bolus injection about 10^6 cpm, FIG. 8c)","tissue distribution of radioactivity ([1]; end of 60 min infusion, brain, thymus, lung, small intestine, skeletal muscle, spleen, heart, kidney, liver, FIG. 8b)","plasma level of radioactivity [1, 3]","urine level of radioactivity [1, 3]","integrity in plasma (HPLC of radiolabelled species) ([2]; plasma 2, 5, 10 min after bolus injection, FIG. 9a)","radioactive species in urine (HPLC) ([2]; urine collected 30 min at end of 60 min infusion, FIG. 9b)"
B1,inability,3200 nmol/min,mirrored the increase in urine flow rate,increase in urine flow,20 to 40 min,more than several hours,60 nmol/min,many times greater,≤ 50 fold,–,–,–,–,–,–
B2,–,–,–,–,–,–,–,–,–,cleared more quickly in the control animals; also recorded: cleared rapidly from the plasma of a normal animal,only the kidney samples contained significant levels of radioactivity; also recorded: specific activity of labeling in the kidney is greater than in any other tissue,remained steady; also recorded: stable plasma level of radioactivity,increased dramatically,appears to remain intact in plasma,"at least two, and possibly three, proUGn-related products"
B3,inability,–,–,–,–,–,–,–,–,–,–,–,–,–,–
